Results on twelve molecules are retold here after US20230257472A1 (JIANGSU HENGRUI MEDICINE, published 2023).

Substitutions are numbered along the chain they refer to.

The term Kd denotes the equilibrium constant for the complex coming apart. As usually defined, the koff is a measure of how fast the partners let go of each other. The term kon denotes the second-order rate constant of association. By EC50 (read off the curve) is commonly meant the concentration giving half of the maximal effect.

For experiment [1], the target named is T1, His-tagged CD70 protein extracellular domain (His-TNC-CD70) (human).
T1 construct: Expressed in 293 cells; also called human His-TNC-CD70 antigen; human CD70 antigen
T1 chain: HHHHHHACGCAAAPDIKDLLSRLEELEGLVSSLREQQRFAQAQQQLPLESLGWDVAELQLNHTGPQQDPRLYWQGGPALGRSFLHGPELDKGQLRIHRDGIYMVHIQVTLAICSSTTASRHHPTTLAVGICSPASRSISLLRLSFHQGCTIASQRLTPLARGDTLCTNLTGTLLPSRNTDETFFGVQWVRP
Description: SPR Biacore T200, antibody captured by anti-human Fc, His-TNC-CD70 in flow, 1:1 model. How it is done: The affinity of the chimeric and humanized antibodies of the present disclosure for the human CD70 antigen was tested using a Biacore instrument. The procedures are as follows:
The human Fc capture molecules were covalently coupled to a CM5 biosensor chip (CAT #BR-1005-30, GE) according to the method described in the instructions of the human Fc capture kit (CAT #BR-1008-39, GE) for affinity capture of the antibodies to be tested. Then, a human His-TNC-CD70 antigen (set forth in SEQ ID NO: 1) flowed through the surface of the chip, and the reaction signal was detected in real time using a Biacore T200 instrument to obtain association and dissociation curves. After the dissociation was completed for each cycle, the biochip was washed and regenerated with a regeneration solution configured in the human antibody capture kit (GE). Data were fitted using a 1:1 model.
A general note: Surface plasmon resonance follows binding to a sensor surface in real time, without labels.

Experiment [2] concerns the target T2, human CD70 on cells (CD70-positive 786-O cells, Raji cells, CHO-S cells expressing human full-length CD70, … (human, UniProt P32970 1-193)).
T2 sequence (looked up): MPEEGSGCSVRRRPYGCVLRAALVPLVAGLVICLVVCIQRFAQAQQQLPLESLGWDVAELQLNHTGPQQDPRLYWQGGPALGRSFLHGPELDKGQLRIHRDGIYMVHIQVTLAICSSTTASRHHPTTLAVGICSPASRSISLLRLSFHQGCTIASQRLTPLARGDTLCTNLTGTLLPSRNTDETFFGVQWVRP
Description: cell-based or functional assay.

The target in experiment [3] is T2, human CD70 on cells (CD70-positive …). Description: flow cytometry on CD70-positive 786-O cells, Alexa Fluor 488 goat anti-human (H+L) detection. How it is done:
(§1) 786-O cells (ATCC, CRL-1932) or Raji cells (ATCC, CCL-86) at 1×10⁶ cells/mL were blocked with 1% BSA PBS buffer, followed by the addition of diluted anti-CD70 antibody samples at different concentrations were added, and the mixture was incubated for 1 h. After the plate was washed twice, Alexa Fluor 488-goat anti-human (H+L) antibody (Invitrogen, CAT #A 11013) was added, and the mixture was incubated for 1 h. After the plate was washed twice, fluorescence signals were read using a flow cytometer.
(Flow cytometry measures light scatter and fluorescence of single cells or particles in a stream.)

Experiment [4] shares this target. Description: flow cytometry on CD70-positive Raji cells, Alexa Fluor 488 goat anti-human (H+L) detection. How it is done: as §1
For experiment [5] the target is unchanged. Description: flow cytometry competition on CHO-S cells expressing human full-length CD70; blocked ligand: biotin-labeled CD27-Fc, Alexa Fluor 488 streptavidin detection. How it is done:
The cell-blocking activity of the anti-CD70 antibodies was assayed by flow cytometry. CHO-S cells expressing human full-length CD70 (Invitrogen, R80007) at 1×10⁶ cells/mL were blocked with 1% BSA PBS buffer, followed by the addition with diluted anti-CD70 antibody samples at different concentrations and biotin-labeled CD27-Fc (set forth in SEQ ID NO: 84), and the mixture was incubated for 1 h. After the plate was washed twice, Alexa Fluor 488-streptavidin (Invitrogen, CAT #S11223) was added, and the mixture was incubated for 1 h. After the plate was washed twice, fluorescence signals were read using a flow cytometer.

The target in experiment [6] is T3, fusion protein of the murine CD70 protein extracellular domain and Human-IgG1-Fc (mouse CD70-Fc) (mouse).
T3 construct: also called mouse CD70 antigen
Description: ELISA, plate coated with 1 µg/mL mouse CD70-Fc, HRP goat anti-human F(ab')2 detection. How it is done:
(§2) The binding ability of the anti-CD70 antibodies was determined by the amount of the antibodies bound to the CD70 antigen protein immobilized on the ELISA plate. 1 μg/mL human CD70-Fc (set forth in SEQ ID NO: 2), monkey CD70-Fc (set forth in SEQ ID NO: 82) and mouse CD70-Fc (set forth in SEQ ID NO: 83) were coated, incubated and blocked. […] OD450 values were measured on a microplate reader.
In general terms: ELISA stands for enzyme-linked immunosorbent assay.

In experiment [7] the target is T4, fusion protein of the monkey CD70 protein extracellular domain and Human-IgG1-Fc (monkey CD70-Fc) (monkey).
T4 construct: also called monkey CD70 antigen
Description: ELISA, plate coated with 1 µg/mL monkey CD70-Fc, HRP goat anti-human F(ab')2 detection. How it is done:
as §2

The target of experiment [8] is fusion protein of the CD70 protein extracellular domain and Human-IgG1-Fc (human CD70-Fc) (human). Description: ELISA, plate coated with 1 µg/mL human CD70-Fc, HRP goat anti-human F(ab')2 detection. As to the method:
as §2

T4 sequence (chain, as listed by the source limits assumed): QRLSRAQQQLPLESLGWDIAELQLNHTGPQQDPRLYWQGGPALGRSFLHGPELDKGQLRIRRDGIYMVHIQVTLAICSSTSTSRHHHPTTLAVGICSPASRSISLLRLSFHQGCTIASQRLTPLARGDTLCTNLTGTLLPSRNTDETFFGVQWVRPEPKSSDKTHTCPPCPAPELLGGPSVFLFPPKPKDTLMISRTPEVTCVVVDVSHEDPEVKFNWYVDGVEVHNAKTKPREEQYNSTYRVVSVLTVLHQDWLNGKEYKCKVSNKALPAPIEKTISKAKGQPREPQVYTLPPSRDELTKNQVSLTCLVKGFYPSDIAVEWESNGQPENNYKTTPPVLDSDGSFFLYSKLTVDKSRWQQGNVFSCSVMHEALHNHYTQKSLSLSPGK
fusion protein of the CD70 protein extracellular domain and Human-IgG1-Fc (human CD70-Fc) (human), sequence (chain, as listed by the source limits assumed): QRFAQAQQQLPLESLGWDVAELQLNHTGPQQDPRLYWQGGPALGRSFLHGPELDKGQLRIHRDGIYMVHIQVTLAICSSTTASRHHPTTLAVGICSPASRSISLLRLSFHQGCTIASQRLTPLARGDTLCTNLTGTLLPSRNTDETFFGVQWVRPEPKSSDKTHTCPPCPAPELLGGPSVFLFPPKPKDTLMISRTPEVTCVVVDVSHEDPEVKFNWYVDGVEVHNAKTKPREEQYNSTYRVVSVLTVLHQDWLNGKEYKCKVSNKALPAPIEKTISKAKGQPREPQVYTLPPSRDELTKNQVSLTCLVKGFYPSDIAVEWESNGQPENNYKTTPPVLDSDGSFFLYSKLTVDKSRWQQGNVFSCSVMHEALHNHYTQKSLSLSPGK
T3 sequence (chain, as listed by the source limits assumed): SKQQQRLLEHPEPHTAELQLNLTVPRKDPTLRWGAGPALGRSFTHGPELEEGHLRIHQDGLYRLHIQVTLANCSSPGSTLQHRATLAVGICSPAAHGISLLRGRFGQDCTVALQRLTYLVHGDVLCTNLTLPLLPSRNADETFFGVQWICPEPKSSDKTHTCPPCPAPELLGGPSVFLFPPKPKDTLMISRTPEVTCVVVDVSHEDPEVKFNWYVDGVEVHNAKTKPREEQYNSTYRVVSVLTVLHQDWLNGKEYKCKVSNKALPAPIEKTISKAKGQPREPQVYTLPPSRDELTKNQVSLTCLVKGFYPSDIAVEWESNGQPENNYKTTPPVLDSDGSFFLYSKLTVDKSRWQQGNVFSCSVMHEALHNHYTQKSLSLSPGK

B1: CHB1 (chimeric antibody of B1) (antibody, human IgG1, kappa, V domains shown)
VH: QVQMQQSGAELVKPGASVMMSCKASGYTFTTYNIHWIKQTPGQGLEWIGDIYPGNGDASYNQKFRDRATLTADRSSSTAYLQLSSLTSEDSAIYYCATFSRFDGWFAYWGQGTLVTVSA
VL: DIVMSQSPASLAVSLGQRATISCRASRSVSTSGYSYMHWYQQKPGQPPKLLIYLASNLESGVPARFSGSGSGTNFTLNIHPVEEEDAATYYCQHSRELPYTFGGGTKLEIKR
notes: Murine variable regions on human IgG1 / human light chain constant regions
In experiment [1], B1 registered a Kd of 0.0334 nM, a koff of 7.54e-05 s⁻¹ and a kon of 2.26e+06 M⁻¹ s⁻¹.

B2: 41D12 (positive control antibody, see WO2012123586) (antibody, human IgG1, lambda, V domains shown)
VH: EVQLVESGGGLVQPGGSLRLSCAASGFTFSVYYMNWVRQAPGKGLEWVSDINNEGGTTYYADSVKGRFTISRDNSKNSLYLQMNSLRAEDTAVYYCARDAGYSNHVPIFDSWGQGTLVTVSS
VL: QAVVTQEPSLTVSPGGTVTLTCGLKSGSVTSDNFPTWYQQTPGQAPRLLIYNTNTRHSGVPDRFSGSILGNKAALTITGAQADDEAEYFCALFISNPSVEFGGGTQLTVLG
Consider B2, for which, in experiment [2], the “IC50 (ng/mL), inhibition of IL-8 secretion mediated by CD70/CD27 binding (U266 cells + HT1080/CD27 cells)” value (“IC50 (ng/mL), inhibition” for short) stood at 23.3 ng/mL and the “Imax (%), maximum inhibition rate of IL-8 secretion from CD27 cells” value (shortened to “Imax (%), maximum inhibition rate”) worked out at 70.9%. Also, the “EC50 (read off the curve)” value in experiment [3] is ~0.03 µg/mL. Moreover, the “EC50 (read off the curve)” value in experiment [4] is ~0.01 µg/mL.

B3: 41D12 (afuc) (antibody, human IgG1, lambda, V domains shown)
VH: B2 VH
VL: B2 VL
modifications: non-fucosylated (heavy chain not modified by fucosylation)
notes: also called non-fucosylated antibody of 41D12
Consider B3, for which, in experiment [2], the “IC50 (ng/mL), inhibition” value turned out to be 24.2 ng/mL and the “Imax (%), maximum inhibition rate” value stood at 71.1%. Besides, in experiment [3], the “EC50 (read off the curve)” value is ~0.03 µg/mL. Further, the concentration for a half-maximal effect (EC50 (read off the curve)) in experiment [4] is ~0.04 µg/mL.

B4: huB7002 (afuc) (antibody, human IgG1, kappa, V domains shown)
VH: EVQLVQSGSELKKPGASVKVSCKASGYTFTNYGMNWVRQAPGQGLEWMGWINTYTGEPTYADEFKGRFVFSLDTSVSTAYLQISSLKAEDTAVYYCARGDSFTTEILRNWYFDVWGQGTTVTVSS
VL: DIQMTQSPSSLSASVGDRVTITCGASENIYGALNWYQQKPGKVPKLLIYGATNLADGVPSRFSGSGSGTDFTLTISSLQPEDVATYYCQNVLSTPWTFGGGTKVEIKR
modifications: non-fucosylated (heavy chain not modified by fucosylation)
notes: also called non-fucosylated antibody of huB7002
Consider B4, for which the “IC50 (read off the curve)” value in experiment [5] is ~0.4 µg/mL. Moreover, in experiment [2], the “IC50 (ng/mL), inhibition” value came out at 19.8 ng/mL and the “Imax (%), maximum inhibition rate” value came out at 91.7%.

B5: huB7002 (antibody, human IgG1, kappa, V domains shown)
VH: B4 VH
VL: B4 VL
notes: Humanized IgG1
With B5, the “IC50 (read off the curve)” value in experiment [5] is ~0.4 µg/mL. The binding result in experiment [6] was “no binding (tested: 10 µg/mL (log 1))”. Further, in experiment [2], the “IC50 (ng/mL), inhibition” value was determined as 21 ng/mL and the “Imax (%), maximum inhibition rate” value was 98.7%. For the same molecule, the “EC50 (read off the curve)” value in experiment [7] was ~0.03 µg/mL. Besides, the binding result in experiment [8] is “binds”. Moreover, the “EC50 (read off the curve)” value in experiment [3] is ~0.02 µg/mL. In addition, in experiment [1], the dissociation constant Kd was determined as 0.0286 nM, the koff stood at 0.000174 s⁻¹ and the association rate constant (kon) turned out to be 6.09e+06 M⁻¹ s⁻¹.

B6: CHF4 (chimeric antibody of F4) (antibody, human IgG1, kappa, V domains shown)
VH: QVQLKQSGAELVKPGASVKMSCKASGDTFPRYNMHWLKQTPGQGLEWIGAIFPGNGETSYNQNFKGKATLTADKSSSTAYMQLNSLTSEDSAVYYCARNSYYDYAWFTYWGQGTLVTVSA
VL: DIVMTQSPASLDVSLGQRATISCRASKSVSSSGYSFMHWYQQKPGQPPKLLISLASNLESGVPARFSGSGSGTDFTLTIYPVEEEDAATYYCQHSREFPPTFGSGTKLEIKR
notes: as for B1
B6: in experiment [1], binding was characterised by a dissociation constant (Kd) of 0.0375 nM, the koff is 8.37e-05 s⁻¹ and the kon amounted to 2.23e+06 M⁻¹ s⁻¹.

B7: huF4011 (afuc) (antibody, human IgG1, kappa, V domains shown)
VH: EVQLVQSGAEVKKPGSSVKVSCKASGDTFPRYNMHWVRQAPGQGLEWMGAIFPGTGETSYNQNFKGRVTLTADKSTSTAYMELSSLRSEDTAVYYCARNSYYDYAWFTYWGQGTLVTVSS
VL: DIVMTQSPDSLAVSLGERATINCRASKSVSSSGYSFMHWYQQKPGQPPKLLISLADNLESGVPDRFSGSGSGTDFTLTISSLQAEDVAVYYCQHSREFPPTFGQGTKLEIKR
modifications: non-fucosylated (heavy chain not modified by fucosylation)
notes: also called non-fucosylated antibody of huF4011
As for B7, the “IC50 (read off the curve)” value in experiment [5] is ~0.3 µg/mL. Further, in experiment [2], the “IC50 (ng/mL), inhibition” value amounted to 13 ng/mL and the “Imax (%), maximum inhibition rate” value was 92.3%. The “EC50 (read off the curve)” value in experiment [3] is ~0.02 µg/mL. For the same molecule, the “EC50 (read off the curve)” value in experiment [4] was ~0.02 µg/mL.

B8: huB1026 (antibody, human IgG1, kappa, V domains shown)
VH: EVQMVQSGAEVKKPGASVKVSCKASGYTFTTYNIHWVRQAPGQGLEWMGDIYPGNGDASYNQKFRDRVTMTRDTSTSTVYMELSSLRSEDTAVYYCATFSRFDGWFAYWGQGTLVTVSS
VL: B7 VL with K27R, S31T, F36Y, S53Y, D56S, F98L, P100Y, Q104G, L108V
notes: Humanized IgG1
In experiment [1], B8 yielded a Kd of 0.0503 nM, a koff of 9.62e-05 s⁻¹ and an association rate constant (kon) of 1.91e+06 M⁻¹ s⁻¹.

B9: huB1010 (afuc) (antibody, human IgG1, kappa, V domains shown)
VH: B8 VH with N55T
VL: B7 VL with K27R, S31T, F36Y, S53Y, F98L, P100Y, Q104G, L108V
modifications: non-fucosylated (heavy chain not modified by fucosylation)
notes: also called non-fucosylated antibody of huB1010
On to B9, for which the “IC50 (read off the curve)” value in experiment [5] is ~0.3 µg/mL. The “EC50 (read off the curve)” value in experiment [3] and in experiment [4] was ~0.02 µg/mL each time.

B10: huB1038 (antibody, human IgG1, kappa, V domains shown)
VH: B8 VH
VL: DIVMSQSPDSLAVSLGERATINCRASRSVSTSGYSYMHWYQQKPGQPPKLLIYLASNLESGVPDRFSGSGSGTNFTLTISSLQAEDVAVYYCQHSRELPYTFGGGTKVEIKR
notes: Humanized IgG1
Regarding B10, in experiment [1], the Kd was 0.0561 nM, the koff was 0.000101 s⁻¹ and the kon is 1.8e+06 M⁻¹ s⁻¹.

B11: huB1025 (antibody, human IgG1, kappa, V domains shown)
VH: B8 VH with M4L, T98R
VL: B10 VL with S5T, N74D
notes: Humanized IgG1
As for B11, in experiment [1], the Kd stood at 0.0462 nM, the dissociation rate constant (koff) was 0.000154 s⁻¹ and the kon is 3.33e+06 M⁻¹ s⁻¹.

B12: huB1037 (antibody, human IgG1, kappa, V domains shown)
VH: B8 VH with M4L, T98R
VL: B10 VL
notes: Humanized IgG1
As to B12, in experiment [1], the Kd came to 0.0407 nM, the dissociation rate constant (koff) was 0.00016 s⁻¹ and the kon turned out to be 3.93e+06 M⁻¹ s⁻¹.
